Test results from patent US7462701.

Molecular target: T1, Gly-Asp-Asp-Asp-Asp-Lys-β-naphthylamide
T1 chain: GDDDDK

B1: CBM-enterokinase produced transiently in lettuce and purified on cellulose (protein)
chain: MVATAKYGTPVIDGEIDEIWNTTEEIETKAVAMGSLDKNATAKVRVLWDENYLYVLAIVKDPVLNKDNSNPWEQDSVEIFIDENNHKTGYYEDDDAQFRVNYMNEQTFGTGGSPARFKTAVKLIEGGYIVEAAIKWKTIKPTPNTVIGFNIQVNDANEKGQRVGIISWSDPTNNSWRDPSKFGNLRLIK
Enterokinase activity (rate of β-naphthylamine formation): Enterokinase activity was measured to be 442.7 cps/min/µg compared to blank 0.0001 cps/min/µg
